Experimental data reported in US20060067919A1.

Target: truncated APC mutant in SW480 cells (human) (UniProt P25054)
Test: cell-based or functional assay

UniProt P25054, sequence (P25054 2-1337, change not shown): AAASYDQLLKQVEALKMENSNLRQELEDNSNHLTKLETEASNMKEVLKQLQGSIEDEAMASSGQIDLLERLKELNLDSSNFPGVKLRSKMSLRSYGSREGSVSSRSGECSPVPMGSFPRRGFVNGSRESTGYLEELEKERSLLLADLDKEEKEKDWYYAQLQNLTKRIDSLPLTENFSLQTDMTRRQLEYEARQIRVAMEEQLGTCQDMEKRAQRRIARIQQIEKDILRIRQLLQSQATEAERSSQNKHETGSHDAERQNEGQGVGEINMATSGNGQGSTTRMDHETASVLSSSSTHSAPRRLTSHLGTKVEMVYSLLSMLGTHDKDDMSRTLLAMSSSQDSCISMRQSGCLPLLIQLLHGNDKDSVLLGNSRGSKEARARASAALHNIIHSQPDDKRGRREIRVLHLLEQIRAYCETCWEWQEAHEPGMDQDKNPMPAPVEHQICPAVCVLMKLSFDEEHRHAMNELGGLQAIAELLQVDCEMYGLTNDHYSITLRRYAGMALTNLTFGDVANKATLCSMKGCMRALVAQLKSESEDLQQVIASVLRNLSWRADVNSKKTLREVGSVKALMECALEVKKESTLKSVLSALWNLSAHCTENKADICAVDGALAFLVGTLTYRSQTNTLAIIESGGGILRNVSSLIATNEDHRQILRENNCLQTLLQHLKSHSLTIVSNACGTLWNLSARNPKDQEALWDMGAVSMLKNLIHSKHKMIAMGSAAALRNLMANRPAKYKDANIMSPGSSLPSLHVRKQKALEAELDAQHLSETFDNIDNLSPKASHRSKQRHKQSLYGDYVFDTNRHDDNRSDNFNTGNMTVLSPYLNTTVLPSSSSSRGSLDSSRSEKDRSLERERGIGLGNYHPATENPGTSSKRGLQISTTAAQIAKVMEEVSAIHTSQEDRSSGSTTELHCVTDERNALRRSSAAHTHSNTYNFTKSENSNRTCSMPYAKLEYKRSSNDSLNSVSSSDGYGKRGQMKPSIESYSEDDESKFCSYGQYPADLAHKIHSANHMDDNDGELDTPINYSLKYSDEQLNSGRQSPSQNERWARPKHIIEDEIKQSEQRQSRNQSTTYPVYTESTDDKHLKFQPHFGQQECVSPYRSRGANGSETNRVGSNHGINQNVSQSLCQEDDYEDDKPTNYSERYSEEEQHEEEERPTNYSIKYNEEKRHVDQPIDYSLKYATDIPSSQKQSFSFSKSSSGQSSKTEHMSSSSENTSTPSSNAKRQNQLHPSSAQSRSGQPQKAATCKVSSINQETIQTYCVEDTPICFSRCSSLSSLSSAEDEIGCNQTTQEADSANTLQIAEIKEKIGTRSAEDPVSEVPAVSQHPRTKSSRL

decrease of migration of SW480 cells [% decrease] | migration of SW480 cells relative to parental or Mock cells (% of parental or Mock cells) | Substance
40 | – | Asef-ΔDH (mutant that lacks the DH domain (GEF domain) of Asef) (from UniProt Q9NR80 1-619)
– | 50 | Asef-ABR expressed in cells from a plasmid (from UniProt Q9NR80 73-126)
